Substitutions are numbered along the chain they refer to. Like-named read-outs stand apart in the source and are kept apart here. Blank lines part the entries; values can stand above or below the binder they belong to.
Experiments:
[1] = target: T1, Prostate specific membrane antigen (PSMA) (human, UniProt Q04609 1-750); experiment: flow cytometry on LNCAP cells, FITC anti-human IgG
T1 construct: whole, on cells; The background says that PSMA is a homodimer when enzymatically active; also called glutamate carboxypeptidase II; GCPII
T1 sequence (Q04609 whole entry): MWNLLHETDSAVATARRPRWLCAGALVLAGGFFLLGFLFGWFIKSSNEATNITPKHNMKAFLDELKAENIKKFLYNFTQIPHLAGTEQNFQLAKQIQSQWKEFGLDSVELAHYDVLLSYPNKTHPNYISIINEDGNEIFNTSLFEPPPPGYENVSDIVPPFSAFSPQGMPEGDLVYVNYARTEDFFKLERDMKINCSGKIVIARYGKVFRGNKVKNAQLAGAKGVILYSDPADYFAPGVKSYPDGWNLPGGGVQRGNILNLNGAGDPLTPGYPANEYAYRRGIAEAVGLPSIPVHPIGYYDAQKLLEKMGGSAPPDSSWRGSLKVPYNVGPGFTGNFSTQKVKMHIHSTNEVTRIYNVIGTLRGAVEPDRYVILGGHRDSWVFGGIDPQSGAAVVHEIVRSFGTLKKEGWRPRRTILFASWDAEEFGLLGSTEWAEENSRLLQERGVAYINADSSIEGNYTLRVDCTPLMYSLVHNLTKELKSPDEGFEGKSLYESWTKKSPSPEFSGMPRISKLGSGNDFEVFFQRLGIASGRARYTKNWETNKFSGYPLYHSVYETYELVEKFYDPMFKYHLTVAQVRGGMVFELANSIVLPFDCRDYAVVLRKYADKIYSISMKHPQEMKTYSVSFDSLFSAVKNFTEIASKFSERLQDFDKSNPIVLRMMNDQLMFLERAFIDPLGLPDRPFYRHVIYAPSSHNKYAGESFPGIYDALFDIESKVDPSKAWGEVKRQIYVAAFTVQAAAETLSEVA
Experimental: (§1) Pre-confluent LNCAP cells at 80-90% confluence were washed and detached from the plates with trypsin prior to 1-hour incubation at 37° C., 5% CO₂ in the flasks to restore cell surface proteins. Cells were washed and adjusted to 1×10₆ cells/ml in staining media (RPMI-1640, 25 mM HEPES, 3% h.i. FBS and 0.02% sodium azide). Various concentrations of the monoclonal antibody samples (murine wt and 16 humanized variants) ranging from 50 to 0.0032 μg/ml were prepared in staining media and incubated with the cells in pre-cooled 96-well plates for 30 min. on ice to allow antibody binding to the LNCAP cell surface. Subsequently, cells were washed at 4° C. with PBS to remove free antibody, and bound antibody was labelled with FITC goat anti-human IgG H&L preabsorbed (Abcam) secondary antibody for 30 min. on ice. Finally, cells were washed, fixed and FITC fluorescence associated to the antibody bound to the cells was measured by flow cytometry (GUAVA 8HT Cytometer). Data was analyzed using Incyte GuavaSoft 2.7 software (Merck-Millipore). The obtained dose-response data (plotted as log-transformed dose vs. response) typically produced sigmoidal curves with variable slope which were fitted to a 4-parameter logistic dose-response equation using GraphPad Prism software. The EC₅₀ dose, defined as the concentration of antibody that provides half of maximal target cell binding, was used to compare the bioactivity of different antibody variants. Data points represent the average of duplicate wells and standard error of the mean (SEM).

[2] = target: T1, Prostate specific membrane antigen …; experiment: flow cytometry on LNCAP cells, FITC anti-human IgG; remark: listed apart in the source
Experimental: as §1

EC50 [1]: 0.25 µg/mL
EC50 [2]: 0.25 µg/mL
B2: 3F11-var 13 (antibody, human IgG1, kappa, V domains shown)
VH: QVQLVQSGAEVKKPGASVKVSCKASGYTFTYFDINWLRQAPGQGLEWMGGISPGDGNTNYNENFKGRVTLTIDKSTSTAYMELSSLRSEDTAVYFCARDGNFPYYAMDSWGQGTLVTVSS
VL: DIVMTQSPLSLPVTPGEPASISCRSSQSLVHSSGQTYLHWYQQKPGQSPQLLIYTVSNRASGVPDRFSGSGSGTDFTLKISRVEAEDVGTYYCSQSTHVPTFGGGTKVEIKR
notes: Expressed from pXC-IgG1zadeltaK and pXC-Kappa vectors

EC50 [1]: 0.248 µg/mL
EC50 [2]: 0.248 µg/mL
B8: 3F11-var 16 (antibody, human IgG1, kappa, V domains shown)
VH: B2 VH with G56S, T58V, N61A, E62Q, N63K, K65Q, K74T, F95Y
VL: B2 VL
notes: as for B2

EC50 [1]: 0.373 µg/mL
EC50 [2]: 0.373 µg/mL
B9: 3F11-var 4 (antibody, human IgG1, kappa, V domains shown)
VH: B2 VH with G56S, T58V, N61A, E62Q, N63K, K65Q, K74T, F95Y
VL: B2 VL with S33N, Q35N, Y41F, Q42L, A60F, T90V, Y92F
notes: as for B2

EC50 [1]: 0.29 µg/mL
EC50 [2]: 0.29 µg/mL
B10: 3F11-var 1 (antibody, human IgG1, kappa, V domains shown)
VH: B2 VH
VL: B2 VL with S33N, Q35N, Y41F, Q42L, A60F, T90V, Y92F
notes: as for B2

EC50 [1]: 0.204 µg/mL
EC50 [2]: 0.204 µg/mL
B12: 3F11-var 8 (antibody, human IgG1, kappa, V domains shown)
VH: B2 VH with G56S, T58V, N61A, E62Q, N63K, K65Q, K74T, F95Y
VL: B2 VL with S33N, Q42L, A60F, T90V
notes: as for B2

EC50 [1]: 0.272 µg/mL
EC50 [2]: 0.272 µg/mL
B16: 3F11-var 14 (antibody, human IgG1, kappa, V domains shown)
VH: B2 VH with N61A, E62Q, N63K, K65Q, K74T, F95Y
VL: B2 VL
notes: as for B2

Continued, binder first:

B1: 3F11-var 6 (antibody, human IgG1, kappa, V domains shown)
VH: B2 VH with N61A, E62Q, N63K, K65Q, K74T, F95Y
VL: B2 VL with S33N, Q42L, A60F, T90V
notes: as for B2
EC50 [1]: 0.219 µg/mL
EC50 [2]: 0.219 µg/mL

B3: 3F11-var 15 (antibody, human IgG1, kappa, V domains shown)
VH: B2 VH with T58V, N61A, E62Q, N63K, K65Q, K74T, F95Y
VL: B2 VL
notes: as for B2
EC50 [1]: 0.244 µg/mL
EC50 [2]: 0.244 µg/mL

B4: 3F11-var 5 (antibody, human IgG1, kappa, V domains shown)
VH: B2 VH
VL: B2 VL with S33N, Q42L, A60F, T90V
notes: as for B2
EC50 [1]: 0.304 µg/mL
EC50 [2]: 0.304 µg/mL

B5: 3F11-var 9 (antibody, human IgG1, kappa, V domains shown)
VH: B2 VH
VL: B2 VL with Q42L, A60F, T90V
notes: as for B2
EC50 [1]: 0.281 µg/mL
EC50 [2]: 0.281 µg/mL

B6: 3F11-var 11 (antibody, human IgG1, kappa, V domains shown)
VH: B2 VH with T58V, N61A, E62Q, N63K, K65Q, K74T, F95Y
VL: B2 VL with Q42L, A60F, T90V
notes: as for B2
EC50 [1]: 0.339 µg/mL
EC50 [2]: 0.339 µg/mL

B7: 3F11-var 2 (antibody, human IgG1, kappa, V domains shown)
VH: B2 VH with N61A, E62Q, N63K, K65Q, K74T, F95Y
VL: B2 VL with S33N, Q35N, Y41F, Q42L, A60F, T90V, Y92F
notes: as for B2
EC50 [1]: 0.273 µg/mL
EC50 [2]: 0.273 µg/mL

B11: 3F11-var 7 (antibody, human IgG1, kappa, V domains shown)
VH: B2 VH with T58V, N61A, E62Q, N63K, K65Q, K74T, F95Y
VL: B2 VL with S33N, Q42L, A60F, T90V
notes: as for B2
EC50 [1]: 0.178 µg/mL
EC50 [2]: 0.178 µg/mL

B13: 3F11-var 3 (antibody, human IgG1, kappa, V domains shown)
VH: B2 VH with T58V, N61A, E62Q, N63K, K65Q, K74T, F95Y
VL: B2 VL with S33N, Q35N, Y41F, Q42L, A60F, T90V, Y92F
notes: as for B2
EC50 [1]: 0.264 µg/mL
EC50 [2]: 0.264 µg/mL

B14: 3F11-var 10 (antibody, human IgG1, kappa, V domains shown)
VH: B2 VH with N61A, E62Q, N63K, K65Q, K74T, F95Y
VL: B2 VL with Q42L, A60F, T90V
notes: as for B2
EC50 [1]: 0.284 µg/mL
EC50 [2]: 0.284 µg/mL

B15: 3F11-var 12 (antibody, human IgG1, kappa, V domains shown)
VH: B2 VH with G56S, T58V, N61A, E62Q, N63K, K65Q, K74T, F95Y
VL: B2 VL with Q42L, A60F, T90V
notes: as for B2
EC50 [1]: 0.329 µg/mL
EC50 [2]: 0.329 µg/mL

From patent publication US20230250189A1 (HEIDELBERG PHARMA RESEARCH, published 2023)
